From paper PMC12726990, “Sialylated Clusterin Binds CD33 to Regulate Microglial Functions in Alzheimer's Disease” (Alzheimer's & Dementia, 2025) come the findings set out here.

This assay addresses T1, Sialylated clusterin (CLU) (UniProt P10909 23-449, sialylated).
T1 construct: Clusterin (CLU), soluble sialylated protein
Briefly: BLI + MST; quantitative binding assay; which of the two methods gave the value, and who was immobilised or labelled, is not told. The following applies: both partners purified.

As a reminder, the Kd is the free concentration of one partner at which half of the binding sites on the other are occupied at equilibrium, for simple one-to-one binding.

T1 sequence (P10909 23-449): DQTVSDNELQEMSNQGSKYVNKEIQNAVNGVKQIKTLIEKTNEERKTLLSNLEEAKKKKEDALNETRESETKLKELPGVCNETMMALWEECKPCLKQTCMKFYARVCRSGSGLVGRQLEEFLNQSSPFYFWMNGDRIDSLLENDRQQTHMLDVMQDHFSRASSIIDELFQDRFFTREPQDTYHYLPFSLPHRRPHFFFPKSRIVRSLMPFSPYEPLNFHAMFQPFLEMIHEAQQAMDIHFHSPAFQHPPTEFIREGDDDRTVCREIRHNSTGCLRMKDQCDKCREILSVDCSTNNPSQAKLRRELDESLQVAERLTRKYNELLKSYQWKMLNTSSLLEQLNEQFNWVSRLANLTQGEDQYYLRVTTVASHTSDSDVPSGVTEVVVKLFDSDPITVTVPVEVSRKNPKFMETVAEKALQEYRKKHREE

B1: sialic-acid binding immunoglobulin-like lectin 3 receptor (Siglec-3 / CD33) (receptor)
chain: DPNFWLQVQESVTVQEGLCVLVPCTFFHPIPYYDKNSPVHGYWFREGAIISRDSPVATNKLDQEVQEETQGRFRLLGDPSRNNCSLSIVDARRRDNGSYFFRMERGSTKYSYKSPQLSVHVTDLTHRPKILIPGTLEPGHSKNLTCSVSWACEQGTPPIFSWLSAAPTSLGPRTTHSSVLIITPRPQDHGTNLTCQVKFAGAGVTTERTIQLNVTYVPQNPTTGIFPGDGSGKQETRAGVVH
As to B1, the Kd worked out at 28.9 ± 10.3 nM.
